Reference: paper PMC8147279

Assays:
[1] = molecular target: β-sliding processivity clamp (Escherichia coli) (UniProt P0A988)
[2] = molecular target: β-sliding processivity clamp (Escherichia coli) (UniProt P0A988); remark: listed apart in the source
[3] = molecular target: β-sliding processivity clamp (Escherichia coli) (UniProt P0A988); remark: listed apart in the source
[4] = molecular target: β-sliding processivity clamp (Escherichia coli) (UniProt P0A988); remark: listed apart in the source
[5] = molecular target: β-sliding processivity clamp (Escherichia coli) (UniProt P0A988); remark: listed apart in the source
[6] = molecular target: β-sliding processivity clamp (Escherichia coli) (UniProt P0A988); remark: listed apart in the source

Sequence of pol V Mut WT (UmuD’2C-RecA-ATP/ATPγS) (P04152 whole entry): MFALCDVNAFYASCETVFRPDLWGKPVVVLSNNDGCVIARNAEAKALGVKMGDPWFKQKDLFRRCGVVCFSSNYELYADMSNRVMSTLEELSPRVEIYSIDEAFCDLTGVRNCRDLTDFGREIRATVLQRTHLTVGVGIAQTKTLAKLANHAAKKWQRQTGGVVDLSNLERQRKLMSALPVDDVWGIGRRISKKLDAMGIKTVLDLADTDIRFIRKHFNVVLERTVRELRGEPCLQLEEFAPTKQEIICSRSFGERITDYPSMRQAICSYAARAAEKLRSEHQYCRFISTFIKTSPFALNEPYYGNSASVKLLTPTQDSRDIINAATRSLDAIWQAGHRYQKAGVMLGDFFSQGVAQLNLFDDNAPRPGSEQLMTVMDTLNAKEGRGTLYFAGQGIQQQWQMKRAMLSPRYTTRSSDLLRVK
Sequence of pol V Mut WT (UmuD’2C-RecA-ATP/ATPγS) (P0AG11 25-139): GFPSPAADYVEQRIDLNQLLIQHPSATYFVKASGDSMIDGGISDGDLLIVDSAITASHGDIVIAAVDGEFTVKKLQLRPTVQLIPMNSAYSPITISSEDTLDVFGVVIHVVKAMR
Sequence of pol V Mut WT (UmuD’2C-RecA-ATP/ATPγS) (P0A7G6 whole entry): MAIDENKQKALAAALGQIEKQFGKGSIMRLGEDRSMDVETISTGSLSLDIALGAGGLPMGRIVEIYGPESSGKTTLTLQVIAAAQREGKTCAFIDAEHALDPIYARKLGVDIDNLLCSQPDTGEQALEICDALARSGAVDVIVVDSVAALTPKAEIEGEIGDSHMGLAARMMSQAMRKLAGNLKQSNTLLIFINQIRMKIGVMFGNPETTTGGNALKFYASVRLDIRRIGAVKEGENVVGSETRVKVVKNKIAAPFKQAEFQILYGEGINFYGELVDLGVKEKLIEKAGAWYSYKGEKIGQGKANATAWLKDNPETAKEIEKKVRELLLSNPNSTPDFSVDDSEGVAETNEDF
Sequence of β-sliding processivity clamp (Escherichia coli) (P0A988 whole entry): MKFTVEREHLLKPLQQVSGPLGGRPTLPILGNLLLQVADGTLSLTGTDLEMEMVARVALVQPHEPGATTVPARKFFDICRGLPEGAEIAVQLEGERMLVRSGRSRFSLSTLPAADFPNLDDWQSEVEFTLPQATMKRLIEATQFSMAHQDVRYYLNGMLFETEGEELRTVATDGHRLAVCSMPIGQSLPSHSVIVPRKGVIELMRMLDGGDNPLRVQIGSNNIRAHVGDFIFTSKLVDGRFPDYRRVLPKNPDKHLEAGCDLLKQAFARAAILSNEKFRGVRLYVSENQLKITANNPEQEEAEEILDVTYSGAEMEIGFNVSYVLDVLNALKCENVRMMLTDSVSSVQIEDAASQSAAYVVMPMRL

translesion synthesis past an abasic site 3 nt from the primer end, % PE, pol V Mut WT with dATP, ATPγS and β/γ, up to 120 min [5] [%] | Substance | percent of primer extended (% PE) on undamaged circular p/t DNA by pol V Mut E38K/ΔC17-ATP with β-clamp and γ-complex, 15-120 min (10% at 120 min without β) [1] [%] | fold increase of DNA elongation rate by β on undamaged DNA, pol V Mut E38K/ΔC17-ATP [2] [fold] | percent of primer extended (% PE) on undamaged circular p/t DNA by pol V Mut E38K/ΔC17-ATPγS with β-clamp and γ-complex (γ-complex stays on β with ATPγS) [3] [%] | percent of primer extended (% PE) on undamaged circular p/t DNA by pol V Mut WT-ATPγS with β-clamp and γ-complex, 15-120 min (~5% at 60 min without β) [4] [%] | fold increase of DNA elongation rate by β on undamaged DNA, pol V Mut WT-ATP [2] [fold] | percent of primer extended (% PE) on undamaged circular p/t DNA by pol V Mut WT-ATP with β-clamp and γ-complex, 15-120 min (about 1% without β) [6] [%]
– | pol V Mut E38K/∆C17 (UmuD’2C-RecA E38K/∆C17-ATP/ATPγS) (from UniProt P04152 1-422; P0AG11 25-139; P0A7G6 1-353) (complex) | 77 | 7 | 42 | – | – | –
35 | pol V Mut WT (UmuD’2C-RecA-ATP/ATPγS) (from UniProt P04152 1-422; P0AG11 25-139; P0A7G6 1-353) (complex) | – | – | – | > 40 | 5 | 5
